In this test the target is T1, 鼠VEGF (mouse, UniProt Q00731-2 27-190, limits assumed).
T1 construct: Coated on the ELISA plate at 0.5 ug/ml; also called mouse VEGF
T1 sequence (looked up): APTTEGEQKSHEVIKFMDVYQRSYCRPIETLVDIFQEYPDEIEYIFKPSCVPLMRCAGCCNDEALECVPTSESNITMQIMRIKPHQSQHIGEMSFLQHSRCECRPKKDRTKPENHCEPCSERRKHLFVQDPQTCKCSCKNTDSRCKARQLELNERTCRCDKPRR
Nature of the test: ELISA, mouse VEGF coated at 0.5 ug/ml.

Here are results for one molecule from CN105330739A (WATERSTONE PHARMACEUTICALS WUHAN CO LTD, dated 2016).

B1: NevegiMab抗体 (antibody, V domains shown)
VH: EVKLQESGPELKKPGETVKISCKASGYTFTNYGLNWVKQAPGKGLKWMGWINTYTGEPTYADDFKGRFAFSLETSASTAYLQINNLKNEDMATYFCAKYGITYEWYFDVWGAGTTVTVSS
VL: DIVLTQSTSSLSASLGDRVTISCRASQDISNSLNWYQQKPNGTVILLIYYTSRLHSGVPSRFSGSGSGAVYSLTISDLEQEDIATYFCQQGNTFPWTFGGGTKLEIKR
notes: Mouse monoclonal antibody purified from hybridoma supernatant; also called 单抗NevegiMab; 单克隆抗体NevegiMab
Turning to B1, the binding result was “no binding”.
